Measured values from patent US20120171195A1.

Columns and labels:
HLA-Cw*1701 (human) = assay: Luminex beads; MAb 1/200; competitor IgG-free serum
HLA-B*5201 (human) = assay: Luminex beads; MAb 1/800; competitor IgG-free serum
HLA-Cw*1402 (human) = HLA-Cw*1402 (human) (UniProt P10321); assay: Luminex beads; MAb 1/1600; competitor rHLA-E
HLA-Cw*1802 (human) = HLA-Cw*1802 (human) (UniProt P10321); assay: Luminex beads; MAb 1/1600; competitor rHLA-E
HLA-B*5101 (human) = assay: Luminex beads; MAb 1/1600; competitor rHLA-E
HLA-B*4002 (human) = HLA-B*4002 (human) (UniProt P01889); assay: Luminex beads; MAb 1/1600; competitor rHLA-E
HLA-Cw*0702 (human) = HLA-Cw*0702 (human) (UniProt P10321); assay: Luminex beads; MAb 1/1600; competitor rHLA-E
HLA-B*1513 (human) = assay: Luminex beads; MAb 1/1600; competitor rHLA-E
HLA-B*1513 (B77) (human) = assay: Luminex single-antigen beads; MEM-E/02 1/600; serum Mi59 1/100
HLA-B*5301 (B53) (human) = assay: as above
HLA-A*2901 (A29) (human) = HLA-A*2901 (A29) (human) (UniProt P04439); assay: as above
HLA-Cw*0304 (human) = assay: as above
HLA-B*3901 (B39) (human) = HLA-B*3901 (B39) (human) (UniProt P01889); assay: as above
HLA-B*5401 (B54) (human) = HLA-B*5401 (B54) (human) (UniProt P01889); assay: as above
[1] = molecular target: HLA-Cw*0801 (Cw8) (human) (UniProt P10321); assay: as above
HLA-B*5001 (B50) (human) = assay: as above
[2] = molecular target: HLA-Cw*1203 (Cw12) (human) (UniProt P10321); assay: as above
HLA-B*1511 (B75) (human) = HLA-B*1511 (B75) (human) (UniProt P01889); assay: as above
HLA-B*3801 (B38) (human) = assay: as above
HLA-B*4403 (B44) (human) = assay: as above
HLA-B*1301 (B13) (human) = assay: as above
HLA-A*2501 (A25) (human) = assay: as above
HLA-B*2708 (B27) (human) = HLA-B*2708 (B27) (human) (UniProt P01889); assay: as above
HLA-B*4801 (B48) (human) = HLA-B*4801 (B48) (human) (UniProt P01889); assay: as above
HLA-A*3002 (A30) (human) = HLA-A*3002 (A30) (human) (UniProt P04439); assay: as above
[3] = molecular target: HLA-Cw*1802 (Cw18) (human) (UniProt P10321); assay: as above
HLA-A*3301 (A33) (human) = assay: as above
HLA-A*2402 (A24) (human) = HLA-A*2402 (A24) (human) (UniProt P04439); assay: as above
HLA-A*2601 (A26) (human) = assay: as above
HLA-A*3201 (A32) (human) = assay: as above
HLA-B*1401 (B64) (human) = HLA-B*1401 (B64) (human) (UniProt P01889); assay: as above
HLA-A*2403 (A24) (human) = assay: as above
HLA-B*6701 (B67) (human) = HLA-B*6701 (B67) (human) (UniProt P01889); assay: as above
[4] = molecular target: HLA-Cw*1701 (Cw17) (human); assay: as above
[5] = molecular target: HLA-Cw*0401 (Cw4) (human); assay: as above
HLA-B*4501 (B45) (human) = assay: as above
HLA-B*1801 (B18) (human) = assay: as above
HLA-B*0801 (B8) (human) = HLA-B*0801 (B8) (human) (UniProt P01889); assay: as above

## murine monoclonal antibody (MAb) MEM-E/02
HLA-Cw*1701 (human)
  MFI: 1930 MFI
HLA-B*5201 (human)
  MFI: 609 MFI
HLA-Cw*1402 (human)
  MFI: 48 MFI
HLA-Cw*1802 (human)
  MFI: 30 MFI
HLA-B*5101 (human)
  MFI: 99 MFI
HLA-B*4002 (human)
  MFI: 196 MFI
HLA-Cw*0702 (human)
  MFI: 88 MFI
HLA-B*1513 (human)
  MFI: 246 MFI

## murine monoclonal antibody MAb MEM-E/02
HLA-B*1513 (B77) (human)
  MFI: < 500 MFI
HLA-B*5301 (B53) (human)
  MFI: < 500 MFI
HLA-A*2901 (A29) (human)
  MFI: < 500 MFI
HLA-Cw*0304 (human)
  MFI: 557 MFI
HLA-B*3901 (B39) (human)
  MFI: < 500 MFI
HLA-B*5401 (B54) (human)
  MFI: < 500 MFI
[1]
  MFI: < 500 MFI
HLA-B*5001 (B50) (human)
  MFI: < 500 MFI
[2]
  MFI: < 500 MFI
HLA-B*1511 (B75) (human)
  MFI: < 500 MFI
HLA-B*3801 (B38) (human)
  MFI: < 500 MFI
HLA-B*4403 (B44) (human)
  MFI: < 500 MFI
HLA-B*1301 (B13) (human)
  MFI: < 500 MFI
HLA-A*2501 (A25) (human)
  MFI: < 500 MFI
HLA-B*2708 (B27) (human)
  MFI: < 500 MFI
HLA-B*4801 (B48) (human)
  MFI: < 500 MFI
HLA-A*3002 (A30) (human)
  MFI: < 500 MFI
[3]
  MFI: 1080 MFI
HLA-A*3301 (A33) (human)
  MFI: < 500 MFI
HLA-A*2402 (A24) (human)
  MFI: < 500 MFI
HLA-A*2601 (A26) (human)
  MFI: < 500 MFI
HLA-A*3201 (A32) (human)
  MFI: < 500 MFI
HLA-B*1401 (B64) (human)
  MFI: < 500 MFI
HLA-A*2403 (A24) (human)
  MFI: < 500 MFI
HLA-B*6701 (B67) (human)
  MFI: < 500 MFI
[4]
  MFI: < 500 MFI
[5]
  MFI: 4590 MFI
HLA-B*4501 (B45) (human)
  MFI: < 500 MFI
HLA-B*1801 (B18) (human)
  MFI: < 500 MFI
HLA-B*0801 (B8) (human)
  MFI: < 500 MFI
